B1: ACE2: purified yeast protein tested as Cdk1 substrate (protein, UniProt P21192 1-770, looked up)
Metallothionein expression …: MDNVVDPWYINPSGFAKDTQDEEYVQHHDNVNPTIPPPDNYILNNENDDGLDNLLGMDYYNIDDLLTQELRDLDIPLVPSPKTGDGSSDKKNIDRTWNLGDENNKVSHYSKKSMSSHKRGLSGTAIFGFLGHNKTLSISSLQQSILNMSKDPQPMELINELGNHNTVKNNNDDFDHIRENDGENSYLSQVLLKQQEELRIALEKQKEVNEKLEKQLRDNQIQQEKLRKVLEEQEEVAQKLVSGATNSNSKPGSPVILKTPAMQNGRMKDNAIIVTTNSANGGYQFPPPTLISPRMSNTSINGSPSRKYHRQRYPNKSPESNGLNLFSSNSGYLRDSELLSFSPQNYNLNLDGLTYNDHNNTSDKNNNDKKNSTGDNIFRLFEKTSPGGLSISPRINGNSLRSPFLVGTDKSRDDRYAAGTFTPRTQLSPIHKKRESVVSTVSTISQLQDDTEPIHMRNTQNPTLRNANALASSSVLPPIPGSSNNTPIKNSLPQKHVFQHTPVKAPPKNGSNLAPLLNAPDLTDHQLEIKTPIRNNSHCEVESYPQVPPVTHDIHKSPTLHSTSPLPDEIIPRTTPMKITKKPTTLPPGTIDQYVKELPDKLFECLYPNCNKVFKRRYNIRSHIQTHLQDRPYSCDFPGCTKAFVRNHDLIRHKISHNAKKYICPCGKRFNREDALMVHRSRMICTGGKKLEHSINKKLTSPKKSLLDSPHDTSPVKETIARDKDGSVLMKMEEQLRDDMRKHGLLDPPPSTAAHEQNSNRTLSNETDAL
B2: MSA1: purified yeast protein tested as Cdk1 substrate (protein, UniProt Q08471 1-629, looked up)
G1-specific transcription …: MDKSMIKKRGRPPITKDYPNPLQSPMAHSSMQVQKQGPHSFAKPLMKVGQSSPSPNKRRLSIDHHHNLAATTRKGRYRGVLLSTPTKKSSTNGSTPISTPSSNDSYNNTVFSETRKTFLQSSPPIMTSSPAFQKKNDYMFPSQEQFKLSLTITESGKAVIAGSLPFSPSSKSSHLMNNNNKKIMQNEKIHKGSKKNAPKFEKRRILSLLKQMKNEKYCDTDTLPEAPPAKPSRSDIIDTELPTIIETSASPIGSARNNNILLSQPPQSPPSSAQLKPPSTPKSSLQFRMGFTPNVALNSVSLSDTISKSTNAVGASNNNNQNGNSISNIADANTLLTLTNSPGVFLSPRNKMLPKSTTASNEQQQEFVFKFSSGDPLLLTDDADGNWPEMLFNVSNTPRRQKCFNTPPSWINFGSPGLFSPPRSSNVMVNGTTVATASDSGNVHRQLQAQLEAQVQVQSQSNSPTQRQQQQRQFQIPPPHINMNSSPPQINIASPPHQSMSRVSSIYFNKEKTTTGVANMLGNTKSENLQPPANLFTAAHGPSTPRNQEFQLPTLIECTPLIQQTMNGSLGTKYIPGTSISNSATPNLHGFPVGTGKAPSSFDDSLKQNPYSNKQDDARTALKRLIDDQ
B3: YOX1: purified yeast protein tested as Cdk1 substrate (protein, UniProt P34161 1-385, looked up)
Homeobox protein YOX1: MSQETKMLPSLSSLLSGTEISSSPVSPSFTNPRTSFHLDDRGTIKLPPLNTSINRPRSVESALRHTVTSLHENSSAYGDDMLKHTQSDSALSSQLNSSQETVDESHENLLLTPLNSKKRDYSVSSKKNDILTPLSAAKSIIIPSASKEKRRAFAFITHSQETFPKKEPKIDNAPLARRKRRRTSSQELSILQAEFEKCPAPSKEKRIELAESCHMTEKAVQIWFQNKRQAVKRQRIATSKSTTIIQTVSPPSPPLDVHATPLASRVKADILRDGSSCSRSSSSSPLENTPPRPHHSLNRRSSTPSIKRSQALTFHLNPQKKTLTPVKTSPNSRVNKLINSIDHSPSKAKRPVSNPSGSPKRKRKFGFKIVDQQPLKDLDPNAFRG
B4: BOP3: purified yeast protein tested as Cdk1 substrate (protein, UniProt P53958 1-396, looked up)
Protein BOP3: MSTFNSYSQPKESNDNSHNNVNKSKSLLDIIFGTNVSEWAFSENALMKAMDLKIEQEKTKQQYYKLENLNRSIELFKLASSSGLPINQIHKLFNTDHGVPASSPMKAGGNQPHNNTEGTQSSENLPRLNGSMKSLKPLNMNTVSPTPMSRQPSPYKFPASSSTGGISHSTVTNVQRRANSPARIGASAVAALNDNISIKEEDVARRIPSGTKSQESPLNKKPTSLHSRNLSLPIGKFTNPNIPSTMTSILSFNRDQQQPLSQPLPPPPQQQQDLHTHNLHTIPRKPGMVQKKHRRARSTSSFGVIDLSIIDEAKEKQVQRSPSPIHSNVSVALTSHDKPIESNMKEQPNMLQSVREGRQVHDDLDDRTCSESSSRNESPVRTITKDNSVGKILNST
B5: STB1: purified yeast protein, Cln2-specific Cdk1 target (protein, UniProt P42845 2-420, looked up)
Protein STB1: SQPQMSPEKEQELASKILHRAELAQMTRQLKLGLSNVPSTKRKQDSTTKKRSGEDAEDVDEDHKTLLEAISPAKKPLHDDTNKMTVISPVKFVEKPNTPPSSRQRKAEDRSQQIKPRKEDTPSTPRASATPIILPHASSHYQRPHDKNFMTPKRNNNNSSNHSNNNNNIKKKAAGSKDAPQDSDNTAGADLLMYLATSPYNKSSHHGTPMAVRMPTTPRSYHYASQLSLNGNTASTSNDAVRFSHIKPSASSPQSTFKSNLLPNFPDESLMDSPSLYLSNNNGSVQATLSPQQRRKPTTNTLHPPSNVPTTPSRELNGTNFNLLRTPNFNMGDYLHNLFSPSPRVPAQQGASNTSASIPSVPAMVPGSSSNTSAIATAAISSHTTNNFLDMNANGIPLIVGPGTDRIGEGESIDDKLTD
B6: TOS8: purified yeast protein tested as Cdk1 substrate (protein, UniProt P53147 1-276, looked up)
Homeobox protein TOS8: MGTSIVNLNQKIELPPIQVLFESLNRENETKPHFEERRLYQPNPSFVPRTNIAVGSPVNPVPVSSPVFFIGPSPQRSIQNHNAIMTQNIRQYPVIYNNNREVISTGERNYIITVGGPPVTSSQPEYEHISTPNFYQEQRLAQPHPVNESMMIGGYTNPQPISISRGKMLSGNISTNSVRGSNNGYSAKEKKHKAHGKRSNLPKATVSILNKWLHEHVNNPYPTVQEKRELLAKTGLTKLQISNWFINARRRKIFSGQNDANNFRRKFSSSTNLAKF

Experiments:
Assay in all cases: Quantitative phosphorylation assay of T33-Sic1ΔC constructs and recombinant substrates
Assay type in all cases: biochemical
Clb5-Cdk1 = molecular target: T1, Clb5-Cdk1 (Saccharomyces cerevisiae, UniProt P00546+P30283); conditions: for kcat/KM, Clb5: Table S2, purified protein substrate, relative values, not divided by [S]; for effect of competitor peptide on Clb5-dependent phosphorylation of Sic1ΔC: synthetic competitor peptide 4 mM, result in words
T1 construct: We purified the four cyclin-Cdk1 complexes from yeast; made in house; host or cells: S. cerevisiae strain DOM0076 (gal-CLB5-TAP, sic1 deleted); Cks1 from bacteria
T1 sequence (P00546 2-298 limits assumed): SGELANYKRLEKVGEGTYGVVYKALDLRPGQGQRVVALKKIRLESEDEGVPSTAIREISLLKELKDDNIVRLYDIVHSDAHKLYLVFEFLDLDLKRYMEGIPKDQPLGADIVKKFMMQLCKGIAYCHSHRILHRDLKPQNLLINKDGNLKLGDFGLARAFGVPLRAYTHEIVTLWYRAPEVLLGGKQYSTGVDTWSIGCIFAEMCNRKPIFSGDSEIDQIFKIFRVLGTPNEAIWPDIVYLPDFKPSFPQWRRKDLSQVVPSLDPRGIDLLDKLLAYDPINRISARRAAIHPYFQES
T1 sequence (P30283 whole entry partner): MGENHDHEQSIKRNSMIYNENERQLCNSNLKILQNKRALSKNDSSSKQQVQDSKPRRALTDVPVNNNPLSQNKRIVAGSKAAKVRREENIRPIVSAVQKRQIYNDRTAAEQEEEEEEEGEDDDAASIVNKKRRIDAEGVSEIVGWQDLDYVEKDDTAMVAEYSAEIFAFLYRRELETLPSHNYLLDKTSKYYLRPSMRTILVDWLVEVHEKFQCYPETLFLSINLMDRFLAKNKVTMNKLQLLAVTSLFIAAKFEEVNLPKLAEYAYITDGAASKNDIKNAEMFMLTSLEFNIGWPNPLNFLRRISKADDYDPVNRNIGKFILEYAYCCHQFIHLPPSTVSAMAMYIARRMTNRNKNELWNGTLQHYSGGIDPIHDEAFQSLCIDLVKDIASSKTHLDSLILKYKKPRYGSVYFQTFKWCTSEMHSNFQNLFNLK
T1 sequence (P20486 whole entry partner): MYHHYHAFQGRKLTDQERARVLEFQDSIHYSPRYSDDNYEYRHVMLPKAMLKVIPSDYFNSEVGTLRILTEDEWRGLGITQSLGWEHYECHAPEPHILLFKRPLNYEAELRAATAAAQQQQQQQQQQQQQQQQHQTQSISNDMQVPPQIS
Procedure: (§1) For the quantitative phosphorylation assays of T33-Sic1ΔC constructs and recombinant substrates, substrate concentrations were kept in the range of 0.5–2 μM (in the linear [S] versus v0 range, several-fold below the estimated KM value), and initial velocity conditions were defined as an initial substrate turnover of up to 10% of the total turnover. For the steady-state peptide kinetics of the Histone peptide PKTPKKAKKL, a similar assay composition was used as for protein substrates, and phosphocellulose paper was used for the quantification of the phosphorylated substrate. […]
(§2) similar substrate specificity as the Cln2-Cdk1 version purified using a TAP-tag. N-terminally 6His-tagged recombinant T33-Sic1ΔC constructs and substrates were cloned into the pET28a vector and purified by standard cobalt affinity chromatography and elution with 200 mM imidazole. 6His-Fin1 was purified as described previously (Woodbury and Morgan, 2007). Substrates cloned into the pGEX-4T-1 were purified on glutathione agarose columns using 5 mM reduced glutathione for elution. Cks1 was purified as described previously (Reynard et al., 2000). The optimal working concentration for purified Cks1 was taken as 500 nM based on optimization performed for cyclin-Cdk1 preparations and T33-Sic1ΔC as a substrate.
(§3) For the quantitative phosphorylation assays of T33-Sic1ΔC constructs and recombinant substrates, substrate concentrations were kept in the range of 0.5-2 μM (in the linear [S] vs v0 range, several-fold below the estimated KM value), and the initial velocity conditions were defined as an initial substrate turnover ranging up to 10% of the total turnover. The latter was estimated by a long-term incubation with excess amounts of cyclin-Cdk1 and 32P-γ-ATP in the standard reaction mixture given below. About 1-10 nM of purified kinase complex was used, reaction aliquots were taken at two or more time points, and the reaction was stopped by SDS-PAGE sample buffer. The relative kcat/KM values for the substrates were calculated as the ratio of v0/[S], which was determined from at least two independent experiments. The basal composition of the assay mixture contained 50 mM Hepes, pH 7.4, 100 mM NaCl, 0.1% NP-40, 20 mM imidazole, 0.1 mg/ml 2HA peptide, 2% glycerol, 2 mM EGTA, 0.2 mg/ml BSA, […], and 500 μM ATP (with added 32P-γ-ATP (Perkin Elmer)).
(§4) About 1-10 nM of purified kinase complex was used, reaction aliquots were taken at two or more time points, and the reaction was stopped by SDS-PAGE sample buffer. For the steady-state peptide kinetics of the Histone peptide PKTPKKAKKL, a similar assay composition was used as for protein substrates and the standard phosphocellulose method was applied for the quantification of the phosphorylated substrate (Loog and Morgan, 2005). Synthetic peptides as competitor agents were used in 4 mM final concentrations. […]

Clb2-Cdk1 = molecular target: T2, Clb2-Cdk1 (Saccharomyces cerevisiae, UniProt P00546+P24869); conditions: Table S2; purified protein substrate; relative values, not divided by [S]
T2 construct: We purified the four cyclin-Cdk1 complexes from yeast; made in house; host or cells: S. cerevisiae strain DOM0077 (gal-CLB2-TAP, sic1 deleted); Cks1 from bacteria
T2 sequence (P00546 2-298 limits assumed): as the sequence (P00546 2-298 limits assumed) above
T2 sequence (P24869 2-491 partner limits assumed): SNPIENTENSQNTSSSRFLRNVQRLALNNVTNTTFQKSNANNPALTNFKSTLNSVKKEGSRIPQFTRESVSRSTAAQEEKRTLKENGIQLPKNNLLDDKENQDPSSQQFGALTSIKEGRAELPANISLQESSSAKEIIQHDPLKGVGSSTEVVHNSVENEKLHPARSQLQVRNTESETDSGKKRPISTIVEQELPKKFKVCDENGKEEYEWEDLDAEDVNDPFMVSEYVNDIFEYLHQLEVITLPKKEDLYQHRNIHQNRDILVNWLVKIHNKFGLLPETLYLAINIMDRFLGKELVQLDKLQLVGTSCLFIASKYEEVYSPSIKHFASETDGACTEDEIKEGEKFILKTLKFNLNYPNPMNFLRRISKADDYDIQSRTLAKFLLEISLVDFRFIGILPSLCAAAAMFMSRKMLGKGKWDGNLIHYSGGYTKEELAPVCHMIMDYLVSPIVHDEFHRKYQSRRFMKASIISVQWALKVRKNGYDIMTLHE
T2 sequence (P20486 whole entry partner): as the sequence (P20486 whole entry partner) above
Procedure: as §1, §2, §3, §4

Clb3-Cdk1 = molecular target: T3, Clb3-Cdk1 (Saccharomyces cerevisiae, UniProt P00546+P24870); conditions: Table S2; purified protein substrate; relative values, not divided by [S]
T3 construct: We purified the four cyclin-Cdk1 complexes from yeast; made in house; host or cells: S. cerevisiae strain DOM0957 (gal-CLB3-TAP, sic1 deleted); Cks1 from bacteria
T3 sequence (P00546 2-298 limits assumed): as the sequence (P00546 2-298 limits assumed) above
T3 sequence (P24870 whole entry partner): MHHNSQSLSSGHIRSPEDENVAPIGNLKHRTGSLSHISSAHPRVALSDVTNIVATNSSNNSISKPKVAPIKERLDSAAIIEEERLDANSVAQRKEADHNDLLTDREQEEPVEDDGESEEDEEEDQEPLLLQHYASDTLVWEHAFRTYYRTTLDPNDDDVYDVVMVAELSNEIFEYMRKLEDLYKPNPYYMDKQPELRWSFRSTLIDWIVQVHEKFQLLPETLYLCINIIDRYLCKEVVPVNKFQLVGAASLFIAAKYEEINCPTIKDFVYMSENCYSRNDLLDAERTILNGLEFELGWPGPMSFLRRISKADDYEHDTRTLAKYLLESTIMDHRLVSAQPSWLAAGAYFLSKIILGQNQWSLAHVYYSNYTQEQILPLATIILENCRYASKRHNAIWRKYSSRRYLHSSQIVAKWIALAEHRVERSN
T3 sequence (P20486 whole entry partner): as the sequence (P20486 whole entry partner) above
Procedure: as §1, §2, §3, §4

Cln2-Cdk1 = molecular target: T4, Cln2-Cdk1 (Saccharomyces cerevisiae, UniProt P00546+P20438); conditions: for kcat/KM, Cln2: Table S2, purified protein substrate, relative values, not divided by [S]
T4 construct: We purified the four cyclin-Cdk1 complexes from yeast; made in house; host or cells: S. cerevisiae strain DMY305 (galactose-induced); Cks1 from bacteria
T4 sequence (P00546 2-298 limits assumed): as the sequence (P00546 2-298 limits assumed) above
T4 sequence (P20438 whole entry partner): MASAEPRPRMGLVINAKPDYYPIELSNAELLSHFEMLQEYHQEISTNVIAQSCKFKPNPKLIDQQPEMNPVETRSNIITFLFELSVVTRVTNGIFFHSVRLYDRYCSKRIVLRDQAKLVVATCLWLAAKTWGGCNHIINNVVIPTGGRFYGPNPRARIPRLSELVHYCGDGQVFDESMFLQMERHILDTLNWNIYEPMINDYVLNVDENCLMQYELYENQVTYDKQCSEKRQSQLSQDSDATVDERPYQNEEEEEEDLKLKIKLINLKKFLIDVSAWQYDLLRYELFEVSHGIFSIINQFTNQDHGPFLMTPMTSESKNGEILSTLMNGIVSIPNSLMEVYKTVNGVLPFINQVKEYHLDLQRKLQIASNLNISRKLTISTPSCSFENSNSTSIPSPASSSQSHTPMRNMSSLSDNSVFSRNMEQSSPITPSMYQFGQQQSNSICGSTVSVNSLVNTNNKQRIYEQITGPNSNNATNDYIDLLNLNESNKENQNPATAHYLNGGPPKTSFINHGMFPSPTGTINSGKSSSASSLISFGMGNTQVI
T4 sequence (P20486 whole entry partner): as the sequence (P20486 whole entry partner) above
Procedure: as §1, §2, §3, §4

[1] = synthetic competitor peptide 4 mM

Row | Molecule | kcat/KM, Clb5 (Clb5-Cdk1) [relative units] | kcat/KM, Clb2 (Clb2-Cdk1) [relative units] | kcat/KM, Clb3 (Clb3-Cdk1) [relative units] | kcat/KM, Cln2 (Cln2-Cdk1) [relative units] | effect of competitor peptide on Cln2 docking / Cln2-dependent phosphorylation of Sic1ΔC (Cln2-Cdk1; synthetic competitor peptide 4 mM, result in words) | effect of competitor peptide on Clb5-dependent phosphorylation of Sic1ΔC (Clb5-Cdk1) | effect of competitor peptide on Cln2-dependent phosphorylation of Sic1ΔC (Cln2-Cdk1; [1])
1 | RTT109: purified yeast protein tested as Cdk1 substrate | 0.010 | 0.080 | 0.027 | 0.067 | – | – | –
2 | VLLPPSRPTS [LP peptide] | – | – | – | – | competitive inhibitor of the docking | – | –
3 | RVNRILFPT [synthetic peptide based on the RXL2 motif of Sic1] | – | – | – | – | – | had an effect on Clb5-dependent phosphorylation | 3- to 4 fold
4 | RVNAIAFPT [AXL peptide, similar peptide in which the arginine of the RXL motif was replaced with alanine] | – | – | – | – | – | only the RXL peptide reduces the specificity of Clb5 | 3- to 4 fold
5 | B1 | 0.004 | 0.069 | 0.029 | 0.025 | – | – | –
6 | B2 | 0.024 | 0.034 | 0.043 | 0.157 | – | – | –
7 | B3 | 0.244 | 4.536 | 2.094 | 0.584 | – | – | –
8 | B4 | 0.027 | 0.109 | 0.101 | 0.521 | – | – | –
9 | B5 | 0.191 | 0.878 | 0.622 | 2.011 | – | – | –
10 | B6 | 0.069 | 0.254 | 0.276 | 2.830 | – | – | –
